Measured values published in patent publication US20230242902A1, “A HIGHLY ERROR-PRONE […] R[…] FOR TARGETED CONTINUOUS EVOLUTION IN VIVO” (The Regents of the University of California, priority 2017, published 2023).
Numbering of substitutions follows the chain as printed. In names and notes the source's numbering stands. Several values for one entry are separate records, joined by “and”; a condition that tells them apart may be missing. Equal entries are not always repeated.

B1: WT: wild-type Kluyveromyces lactis DNA polymerase TP-DNAP2, SEQ ID NO:13 (protein, listed as Kluyveromyces lactis)
chain: MNDELAFLNSQIDDYSDDIEFLRTEVFRINRYSKSIYSLMKNSSKEAIKETIEFNKYGQEIHSKIKEKEISLIEAIKLMEKKYKYLRSLNKTKDKSKKKKIHTKDIETLKTIYKTKADFDIRNFKNAETFTYENYSLLIPSEKELIDLIPEIEEDYSYYFYVSLTITGPTIFGGVTRKVPIIDTYGDINKDFYNKIKENITKVLDRVPFYEEKESEIICKKVLITLTVNKWESIDKWYKNVKSKSKKFKDFTLFLASDTSKNCVQQCVEYLGGKWNTNYSLEKMIPQQKIVTYIPLLMDIQYVQSMEDLISDFDEPNTDCKNIARLLKWNGHMGVITKIDKDVKINRIQRKRIIDVENKEVKEVFFDIESFSDETKHQIPYLICWSYLGELYYRTGKNCIKEFVEEILSYNVDIILYAWYGSGYDYQHVLPYMKSKCIKDKYIIKNNMITYGELYYENAIIYLKDPYLFILTSLDKASKAFNVINKGEFPHSIIHSWEDLNKILPNWVKIQKRMIEYKDDNKLNIYYKNIEIFENDRNYNTILENAIEYCKVDVLAMEKVWIKFKKLLEKNLNITVSVKTFTLSQLSMKIMESKLPKYVKLYVPTLEEYSKIRNAIYGGRVISKNGIYEENIVYADVVSLYPSAMKLLKHSYGKPKLVDYIDFEKHGIYRVTLLNKHDQEPKNYLNFVPRRINRKLTWEWFKIHEGWYHTYDLIIAKSEGFDIYCHEGFEYPEKDYIFNDFIDTLYSMKETHTACSCEEQPCPIRMVAKIALNGGGYGKFVQKPIDKEIYIVKRDVVAGECDKLQENENGEICIGKRLVKRPLFYNLDSENYDKMIIEKEDEPIYSTQCGISILSASRYRLYKLCKQFENIDIIYSDTDSIFVKQKSVDWELFKSKCGSELGQLDSTIDDTKNAIISKMYIGGAKMYAFEYLNNKNKLITKLHCKGVPNYMLSLNQFKYLMESPDNTIAYKFEIIRRKLVNVITKDLIKDIKQT
B2: TP-DNAP1-4-2: TP-DNAP1 variant (L477V, L640Y, I777K, W814N), encoded by SEQ ID NO:11 (protein, listed as Kluyveromyces lactis)
chain: MDYKDKALNDLRNVYADFDSLPLDFRQILIKDRATLLQKEDVEKKILERQEDAKKYAEYLKQSEIPERISLPNIKRHKGVSISFEETSEDMVLEPRPFIFDGLNIRCFRRETIFSLKNKILNMVKESSSFKNVSRQSVSFMYFKIFNKGKVIASTKSVNIYEDKIDERLEDLCNNFDDVLKKIIDVTYGYESLFVSETYSYVIFYAKSIYFPQPRCVNNWGNNIPNILTFDSFKLFTANKNNVSCIKQCSRFLWQKDFNTLEEMIEYKNGNICIVTPQLHINDVRDIKSFNDIRLYSESPIKTFSVIDNTITYLFYFKEHLGVIFNITKSRHDRRVTKFSPLSKFSDVKNITVCFDIESYFDPEKESNQVNIPFICCASIIYNKVIGNIVDFEGRDCVAQMIEYVVDICGELNISSVELIAHNGGGYDFHYILSSMYNPAAIKNILIRNNSFISFNFAHDGVKFSVKDSYSFLLCSVANASKAFLNEETFKKTDFPHHDLKTADDLYKVYKEWSSVNTEINHVVEKEKLLITSEHIVNFTKNDKSKTLIEWSKDYCRNDVLVLSKVWLEFKNAVEDIFNCELVDQTMTLAGLSYKLFQANMPFDVELRHPNKEDYFNMREALIGGRCISVNGIYKDVLCYDVKSLYPASMAFYDQPYGSFKRVSSRPKDELGIYYVRVTPNRNNKSNFFPIRSHNKITYNNFEESTYIAWYTNVDIDIGLSEGHNIEYIPFDSYGNIGYSWSKKGKIFEKYIKDVLYKLKIKYEKQNNKVKRNVIKKIMNSLWGKFAQKWVNFEYFIKSEDDIDFESEEAYKINDTDFMLIKKIKESTYSSKPIQNGVFTLSWARYHMKSIWDAGAKEGAECIYSDTDSIFVHKEHFKKNAKFMLNGLKVPIIGSEVGQLELECEFDKLLCAGKKQYMGFYTYFQDGKPCIKEKKRFKGIPSNYIIPELYAHLLSGADKEAKIQFLKFRREWGSVKGYIENKTVKAT
B3: w.t.: wild-type Kluyveromyces lactis DNA polymerase TP-DNAP1, SEQ ID NO:1 (protein, listed as Kluyveromyces lactis)
chain: B2 chain with V477L, Y640L, K777I, N814W

Tests used:
Format in all cases: cell-based, S. cerevisiae
p2 = p2 copy number by mKate2 fluorescence calibrated with qPCR; conditions: GA-Y021
Experimental: To precisely measure p1 and p2 per-base substitution mutation rates, several modifications were made to the small-scale protocol. First, 36 replicates were performed for reconfirmation of candidate TP-DNAP2 mutators, and 48 replicates for genomic and mutual orthogonality experiments. Titers were also determined for each strain after spot plating by pooling the residual volume from 4 replicates and plating dilutions on YPD. The expected number of LEU2 functional mutants (m) was determined by the Ma-Sandri-Sarkar maximum likelihood estimator (as calculated by the FALCOR tool and corrected for partial plating (Foster, 2006, Methods Enzymol, 409:195-213; Sarkar et al., 1992, Genetica, 85:173-179; Hall et al., 2009, Bioinformatics, 25:1564-1565). The mean mKate2 fluorescence was determined from 50,000 event counts on Attune™ NxT Flow Cytometer and converted to p2 copy number by using a calibration curve. To determine per-base substitution rates, the corrected m was normalized to the average cell titer, the p2 copy number, and the target size for functional leu2* reversion (2.33 bp). […]
A standard curve relating p2 copy number to mKate2 fluorescence was prepared by combining quantitative PCR with flow cytometry. […] All extracts were diluted 4000-fold for use in two distinct qPCR reactions, one to quantify p2-encoded leu2* and the other to quantify the genomic copy of LEU3. […]

p1 = p1 copy number by p1-encoded mKate2 fluorescence
Procedure, shortened: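 Yeast OR-Y24 strains carrying TP-DNAP1 variants were grown to saturation from a 1:10,000 dilution, and p1-encoded mKate2 fluorescence was measured by flow cytometry (ex/em 561/620 nm). Values were converted to copy number via a linear calibration against qPCR of p1-encoded LEU2 versus genomic LEU3, or by plate-reader OD600-normalized fluorescence relative to w.t. TP-DNAP1.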

genomic URA3 gene = test: Fluctuation tests of the genomic URA3 gene in the presence of TP-DNAP1 variants; conditions: for Yeast genomic substitution mutation rate: URA3 locus, strain harbouring p1 and the TP-DNAP1 variant
Experimental: Fluctuation tests of the genomic URA3 gene were performed to determine genomic per-base substitution rates, as previously described (Ravikumar et al., 2014). Fluctuation data were analyzed by the maximum likelihood method, as described for large-scale p1 fluctuation tests. Phenotypic mutation rates were divided by the target size for loss of function of URA3 via base pair substitution (Lang et al., 2008), to yield per-base substitution rates. 95% confidence intervals were similarly scaled by these factors. All data related to genomic URA3 fluctuation tests are fully described in Table 5.

p1-encoded leu2 (Q180*) = test: qPCR measurement of p1-encoded leu2 (Q180*) copy number; conditions: qPCR-determined p1 copy number, OR-Y24 strains
Experimental: A calibration curve was established to correlate p1 copy number, determined via quantitative PCR (qPCR), with fluorescence of p1-encoded mKate2 (Table 1). Five TP-DNAP1 variants representing a wide range of copy numbers were transformed into ORY24 and passaged until w.t. p1 was displaced. The five OR-Y24 strains were grown to saturation, diluted 1:10,000 to mimic p1 fluctuation tests, and grown in triplicate 100 μL cultures and duplicate 40 mL cultures. 100 μL saturated cultures were subject to fluorescence measurement of mKate2 (ex/em=561 nm/620 nm, bandwidth=15 nm) on a flow cytometer (Invitrogen Attune NxT). Whole-cell DNA extracts were prepared from 40 mL cultures and used as templates for qPCR measurement of p1-encoded leu2 (Q180*), as described previously (Ravikumar et al., 2014). p1-encoded LEU2 was PCR amplified with qPCR-Leu2F and qPCR Leu2R; and genomic LEU3 was PCR amplified with qPCR-Leu3F and qPCR-Leu3R using SyBR Green (Fisher Scientific) master mix.

| Molecule | p2 copy number per cell (p2) | p1 copy number (p1; sustained by TP-DNAP1 variant) | genomic mutation rates in the presence of p1 replication (genomic URA3 gene) | Yeast genomic substitution mutation rate (genomic URA3 gene) | Average leu2 (Q180*) copy number per cell (p1-encoded leu2 (Q180*); L640Y, I777K, W614N) | Fold-change of p1 copy number over w.t. (p1; G410 (w.t.) background) | Fold-change of p1 copy number over w.t. (p1; variant additionally carrying G410H) | Average leu2 (Q180*) copy number per cell (p1-encoded leu2 (Q180*)) |
| --- | --- | --- | --- | --- | --- | --- | --- | --- |
| B1 | 128 |  |  |  |  |  |  |  |
| B2 |  | ~5 | remain unchanged | 1.98 × 10^−10 s.p.b. | 16.9 and 15.6 |  |  |  |
| B3 |  |  |  | 8.73 × 10^−11 s.p.b. |  | 1.0 ± 0.27 fold | 1.53 ± 0.33 fold | 68.9 and 88.1 |
